From patent US20250242034A1, “PHOSPHORAMIDATE-BASED PSMA-TARGETED SMALL-MOLECULE DRUG CONJUGATES” (priority 2022, published 2025)
Read-outs that look alike come from different tables or passages of the source. Square brackets hold non-standard residues; d marks the D form. Peptide text beside a SMILES is read from it. * marks the point of attachment. Dolaproine = CO[C@@H]([C@@H]1CCCN1)[C@@H](C)C(=O)O; Dil = CC[C@H](C)[C@H](NC)[C@@H](CC(=O)O)OC; X1 = C[C@@H](N*)[C@@H](O)c1ccccc1; NMeV = CN[C@H](C(=O)O)C(C)C

Assays:
[1] = test system: PSMA+ PC3-PIP tumor cells; format: in vivo, NCr nude mice; conditions: n=8; for time until animals reached end point criteria / end point tumor burden after first administration: IV once weekly for 6 weeks, SMDCs 0.8 mg/kg, MMAE 0.2 mg/kg
Protocol: Efficacy Study Design: NCr nude mice (age 6-8 weeks) injected with 1×10^6 PC3 PiP cells (1:1 in saline with Matrigel, 100 μL total volume) subcutaneously to right rear flank. Tumors were allowed to grow until approximate size of 100 mm^3 (roughly 2-3 weeks) before starting compound treatments. Treatment consisted of an injection of the appropriate compound to the lateral tail vein (100 μL bolus) once a week for the first 6 weeks of the study. Efficacy treatment groups were 8 animals each of: 1) saline, 2) MMAE alone, 0.2 mg/kg (molar equivalent to the MMAE conjugated to the small molecules), 3) CTT1700 (structure noted below), 0.8 mg/kg, 4) 1, 0.8 mg/kg, and 5) 2, 0.8 mg/kg. Tumor sizes were measured twice weekly for the duration of the study and mortality noted for survival curves. Animals were sacrificed if tumor condition reached IACUC standards for euthanasia (tumor burden of >1.5 cm in any axis, ulceration, >20% weight loss). Blood draws were taken via superficial temporal vein at 0, 4, 7 and 10 weeks and CBCs with 3-part differential measured.
(§1) To evaluate efficacy of SMDCs 1 and 2 in preclinical models of human PCa, we employed xenograft tumor models derived from PSMA+ PC3-PIP tumor cells implanted subcutaneously in the right rear flank of NCr nude mice (6-8 weeks old). […] Tumor sizes were measured twice weekly for the duration of the study and mortality noted for survival curves for 90 days after first administration. Animals were euthanized if tumor or mouse condition reached IACUC standards for euthanasia (tumor burden of >1.5 cm in any axis, ulceration, >20% mouse weight loss). Blood draws were taken via superficial temporal vein at 0, 4, 7 and 10 weeks, and complete blood count (CBC) analysis was performed with a 3-part differential measurement.

[2] = Compound residence study (PK): plasma and tissue levels of parent drug and MMAE by LC-MS/MS; format: in vivo, NCr nude mice; conditions: for Tumor AUC0-t, MMAE / Tumor Cmax, MMAE / Tumor AUC0-t, Parent / Tumor Cmax, Parent: PC3-PiP tumor; for Tumor AUC0-t, MMAE / Tumor Cmax, MMAE / Kidney AUC0-t, MMAE / Kidney Cmax, MMAE / Plasma % extrapolated, MMAE: analyte MMAE payload; for fraction of drug that is estimated to release MMAE: calculated from apparent MMAE formation clearance and reported MMAE clearance; for parent drug concentrations in tissues other than tumor: 0.8 mg/kg
Protocol: Compound Residence study design (PK Studies): Three volumes of PBS, pH 7.4, were added to tumor, kidney, and lacrimal tissues and 10 volumes of PBS, pH 7.4, were added to prostate tissue samples. Tumor, kidney, and prostate samples were homogenized with a homogenizer, and lacrimal tissues were sonicated with a sonicator. Twenty five microliters of plasma or tissue homogenate was added to a microcentrifuge tube followed by 10 μL of internal standard solution and 100 μL of 5 mM ammonium bicarbonate and acetonitrile (25:75 v,v). The sample was then vortexed at a high setting for 1 minute and centrifuged at 17,200×g for 10 minutes. The resultant supernatant was pipetted into an HPLC vial and 10-20 μL was injected into the LC-MS/MS system. […] [^2H8]-MMAE was used as the internal standard for MMAE. […] A SCIEX 6500+ Qtrap LC-MS/MS system consisting of an Agilent (Palo Alto, CA 94036) 1290 HPLC and Sciex 6500+ QTrap mass detector was used for quantitation of MMAE concentrations. The chromatography consisted of a gradient using of 5 mM ammonium bicarbonate and acetonitrile and the separation was achieved using a Phenomenex (Torrance, CA 90501) Kinetex column (2×50 mm, 2.6 μm). […] Standard curves were linear from 10-10,000 ng/mL for CTT1700, SMDCs 2 and 1 while the MMAE standard curves were linear from 0.01 to 10 ng/mL. A 1/y^2 weighted linear regression was used for all standard curves.
PK parameters were estimated using standard noncompartmental methods with Phoenix WinNonlin (Certara, Princeton, NJ). Plasma parent drugs were derived using the IV bolus approach, while all other data were derived using the extravascular approach.
as §1, with “measurement. For biodistribution studies, blood samples were obtained at 1 and 6 h post a single 0.8 mg/kg dose, followed by euthanasia at 24, 72 and 120 h; LC-MS/MS analysis was performed to determine concentrations of SMDC and MMAE in plasma, tumor, lacrimal gland, kidney, and prostate samples.” for “measurement.”

[3] = reported pharmacokinetics of MMAE dosed directly; format: in vivo; conditions: corresponds to 60 mL/h
[4] = cited from earlier work
[5] = biological target: PSMA (Homo sapiens, UniProt Q04609); test: PSMA binding (IC50 values for PSMA)
[6] = 0.8 mg/kg IV once weekly for 6 weeks
[7] = IV 0.8 mg/kg, analyte parent drug
[8] = IV 0.8 mg/kg, kidney, analyte parent drug
[9] = IV 0.8 mg/kg, plasma, analyte parent drug
[10] = NCr nude, mouse, IV 0.8 mg/kg, plasma, analyte parent drug, read-out: Plasma Cmax, Parent

Sequence of PSMA (Q04609 whole entry): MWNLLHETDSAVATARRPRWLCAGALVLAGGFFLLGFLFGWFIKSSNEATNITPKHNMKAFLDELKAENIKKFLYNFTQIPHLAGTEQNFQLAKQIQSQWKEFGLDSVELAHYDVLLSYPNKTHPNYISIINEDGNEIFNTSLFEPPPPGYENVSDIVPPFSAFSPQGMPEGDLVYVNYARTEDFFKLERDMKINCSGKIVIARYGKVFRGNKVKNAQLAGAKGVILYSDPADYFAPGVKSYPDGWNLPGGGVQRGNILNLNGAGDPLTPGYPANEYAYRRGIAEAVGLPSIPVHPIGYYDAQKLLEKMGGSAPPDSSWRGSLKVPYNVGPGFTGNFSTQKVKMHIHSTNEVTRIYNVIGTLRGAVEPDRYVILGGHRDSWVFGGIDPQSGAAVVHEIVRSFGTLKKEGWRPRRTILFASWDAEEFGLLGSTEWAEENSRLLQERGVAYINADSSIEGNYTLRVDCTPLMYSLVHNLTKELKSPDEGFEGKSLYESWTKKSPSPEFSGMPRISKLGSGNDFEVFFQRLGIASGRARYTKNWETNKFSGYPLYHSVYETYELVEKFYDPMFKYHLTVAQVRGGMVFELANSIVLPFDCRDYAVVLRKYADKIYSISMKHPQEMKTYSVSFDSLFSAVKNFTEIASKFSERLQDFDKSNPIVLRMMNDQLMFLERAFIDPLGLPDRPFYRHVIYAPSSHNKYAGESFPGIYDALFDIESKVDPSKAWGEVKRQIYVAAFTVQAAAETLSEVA

CC[C@H](C)[C@@H]([C@@H](CC(=O)N1CCC[C@H]1[C@H](OC)[C@@H](C)C(=O)N[C@H](C)[C@@H](O)c1ccccc1)OC)N(C)C(=O)[C@@H](NC(=O)[C@H](C(C)C)N(C)P(=O)(O)OCC[C@H](NC(=O)c1ccc(Cn2nnc3c2-c2ccccc2CN(C(=O)CCC(=O)NCCOCCOCCOCCOCCC(=O)N[C@@H](CCC(=O)NCCCCCC(=O)N[C@@H](CCC(=O)N[C@@H](CCCOP(=O)(O)N[C@@H](CCC(=O)O)C(=O)O)C(=O)O)C(=O)O)C(=O)N[C@H](CCCCNC(=O)CCCc2ccc(I)cc2)C(=O)O)c2ccccc2-3)cc1)C(=O)O)C(C)C [CTT1700, reference compound]
therapeutic efficacy (in words) [1, 6]: moderate efficacy
time until animals reached end point criteria / end point tumor burden after first administration [1]: ≤ 12 weeks
Tumor AUC0-t, MMAE ([2]; IV 0.8 mg/kg): 262 ng·days/g
Tumor Cmax, MMAE ([2]; IV 0.8 mg/kg): 98.7 ng/g
Tumor AUC0-t, Parent [2, 7]: 483 ng·days/g
Tumor Cmax, Parent [2, 7]: 194 ng/g
Kidney AUC0-t, MMAE ([2]; IV 0.8 mg/kg, kidney): 4.00 ng·days/g
Kidney Cmax, MMAE ([2]; IV 0.8 mg/kg, kidney): 1.82 ng/g
Kidney AUC0-t, Parent [2, 8]: 685 ng·days/g
Kidney Cmax, Parent [2, 8]: 400 ng/g
Lacrimal AUC0-t, Parent ([2]; IV 0.8 mg/kg, lacrimal gland, analyte parent drug): 220 ng·days/g
Plasma % extrapolated, MMAE ([2]; IV 0.8 mg/kg, plasma AUC): 28%
Plasma % extrapolated, Parent ([2]; IV 0.8 mg/kg, plasma AUC, analyte parent drug): 1.9%
Plasma AUC0-inf, Parent [2, 9]: 6566 ng·days/mL
Plasma AUC0-t, Parent [2, 9]: 6442 ng·days/mL
Prostate AUC0-t, Parent ([2]; IV 0.8 mg/kg, prostate, analyte parent drug): 647 ng·days/g
Kp ([2]; NCr nude, mouse, kidney/plasma, IV 0.8 mg/kg, analyte parent drug, read-out: Kp (kidney/plasma), Parent): 0.106
Kp ([2]; NCr nude, mouse, lacrimal gland/plasma, IV 0.8 mg/kg, analyte parent drug, read-out: Kp (Lacrimal/plasma), Parent): 0.0342
Kp ([2]; NCr nude, mouse, prostate/plasma, IV 0.8 mg/kg, analyte parent drug, read-out: Kp (prostate/plasma), Parent): 0.1
Kp ([2]; NCr nude, mouse, tumor/plasma, IV 0.8 mg/kg, analyte parent drug, read-out: Kp (tumor/plasma), Parent): 0.075
Cmax ([2]; NCr nude, mouse, IV 0.8 mg/kg, lacrimal gland, analyte parent drug, read-out: Lacrimal Cmax, Parent): 71.9 ng/g
Tmax ([2]; NCr nude, mouse, IV 0.8 mg/kg, plasma, analyte parent drug): 1 h
clearance ([2]; NCr nude, mouse, IV 0.8 mg/kg, plasma, analyte parent drug, read-out: Plasma Cl, Parent (converted)): 5.08 mL/h/kg
Cmax [2, 10]: 7020 ng/mL
Vd ([2]; NCr nude, mouse, IV 0.8 mg/kg, plasma, analyte parent drug, read-out: Plasma Vss, Parent): 0.136 L/kg
half-life ([2]; NCr nude, mouse, IV 0.8 mg/kg, plasma, analyte parent drug, read-out: Plasma t1/2, Parent (converted)): 23 h
Cmax ([2]; NCr nude, mouse, IV 0.8 mg/kg, prostate, analyte parent drug, read-out: Prostate Cmax, Parent): 280 ng/g
fraction of drug that is estimated to release MMAE [2]: 1%

CC[C@H](C)[C@@H]([C@@H](CC(=O)N1CCC[C@H]1[C@H](OC)[C@@H](C)C(=O)N[C@H](C)[C@@H](O)c1ccccc1)OC)N(C)C(=O)[C@@H](NC(=O)[C@@H](NC)C(C)C)C(C)C [MMAE, Monomethyl auristatin E] (H-[NMeV]V[Dil][Dolaproine]-X1)
time until animals reached end point criteria / end point tumor burden after first administration [1]: ≤ 6 weeks
reported plasma clearance of MMAE, converted [3]: 1960 mL/h/kg
t1/2 reported for MMAE when dosed directly ([4]; MMAE dosed directly): 4.1 h
reported plasma clearance of MMAE ([4]; in vivo): 60 mL/h

CC[C@H](C)[C@@H]([C@@H](CC(=O)N1CCC[C@H]1[C@H](OC)[C@@H](C)C(=O)N[C@H](C)[C@@H](O)c1ccccc1)OC)N(C)C(=O)[C@@H](NC(=O)[C@H](C(C)C)N(C)C(=O)OCc1ccc(NC(=O)[C@H](CCCNC(N)=O)NC(=O)[C@@H](NC(=O)c2ccc(Cn3nnc4c3-c3ccccc3CN(C(=O)CCC(=O)NCCOCCOCCOCCOCCC(=O)N[C@@H](CCC(=O)NCCCCCC(=O)N[C@@H](CCC(=O)N[C@@H](CCCOP(=O)(O)N[C@@H](CCC(=O)O)C(=O)O)C(=O)O)C(=O)O)C(=O)N[C@H](CCCCNC(=O)CCCc3ccc(I)cc3)C(=O)O)c3ccccc3-4)cc2)C(C)C)cc1)C(C)C [SMDC 1]
IC50 ([5]; read-out: IC50 for PSMA): 24.1 ± 2.1 nM
survival 90 days after initial dosing [1, 6]: Six of eight
therapeutic efficacy (in words) [1, 6]: dramatic efficacy compared to controls
tumor growth response [1, 6]: tumor regression was observed following initiation of administration up until 2 weeks after the last dose, with subsequent slow tumor growth
Tumor AUC0-t, MMAE ([2]; IV 0.8 mg/kg): 1652 ng·days/g
Tumor Cmax, MMAE ([2]; IV 0.8 mg/kg): 509 ng/g
Tumor AUC0-t, Parent [2, 7]: 475 ng·days/g
Tumor Cmax, Parent [2, 7]: 122 ng/g
parent drug concentrations in tissues other than tumor [2, 7]: could not be quantified in any other tissue other than the tumor
parent drug concentrations in tissues other than tumor ([2]; IV 0.8 mg/kg, analyte parent drug, listed as VC): VC concentrations in all tissues other than tumor were below the LLOQ.
Kidney AUC0-t, MMAE ([2]; IV 0.8 mg/kg, kidney): 55.5 ng·days/g
Kidney Cmax, MMAE ([2]; IV 0.8 mg/kg, kidney): 30.6 ng/g
distribution volume of parent SMDC ([2]; IV 0.8 mg/kg, plasma): 0.106 L/kg
Plasma % extrapolated, MMAE ([2]; IV 0.8 mg/kg, plasma AUC): 2.9%
absolute tumor MMAE exposure compared to CTT1700 ([2]; IV 0.8 mg/kg, tumor, higher than control SMDC with non-degradable linker): approximately 6 fold
Cmax [2, 10]: < 10 ng/mL
fraction of drug that is estimated to release MMAE [2]: 38%

CC[C@H](C)[C@@H]([C@@H](CC(=O)N1CCC[C@H]1[C@H](OC)[C@@H](C)C(=O)N[C@H](C)[C@@H](O)c1ccccc1)OC)N(C)C(=O)[C@@H](NC(=O)[C@H](C(C)C)N(C)C(=O)OCc1ccc(OC(=O)N(C)CCN(C)P(=O)(O)OCC[C@H](NC(=O)c2ccc(Cn3nnc4c3-c3ccccc3CN(C(=O)CCC(=O)NCCOCCOCCOCCOCCC(=O)N[C@@H](CCC(=O)NCCCCCC(=O)N[C@@H](CCC(=O)N[C@@H](CCCOP(=O)(O)N[C@@H](CCC(=O)O)C(=O)O)C(=O)O)C(=O)O)C(=O)N[C@H](CCCCNC(=O)CCCc3ccc(I)cc3)C(=O)O)c3ccccc3-4)cc2)C(=O)O)cc1)C(C)C [SMDC 2]
IC50 [5]: 1.74 ± 0.14 nM
